# Measured values reported in patent US20240018502A1.
# Target: plasma purified human complement protein C3 (human) (UniProt P01024)
# Assay: cell-based or functional assay
# Chain of plasma purified human complement protein C3 (human) (P01024 23-667, chain 1 of 2): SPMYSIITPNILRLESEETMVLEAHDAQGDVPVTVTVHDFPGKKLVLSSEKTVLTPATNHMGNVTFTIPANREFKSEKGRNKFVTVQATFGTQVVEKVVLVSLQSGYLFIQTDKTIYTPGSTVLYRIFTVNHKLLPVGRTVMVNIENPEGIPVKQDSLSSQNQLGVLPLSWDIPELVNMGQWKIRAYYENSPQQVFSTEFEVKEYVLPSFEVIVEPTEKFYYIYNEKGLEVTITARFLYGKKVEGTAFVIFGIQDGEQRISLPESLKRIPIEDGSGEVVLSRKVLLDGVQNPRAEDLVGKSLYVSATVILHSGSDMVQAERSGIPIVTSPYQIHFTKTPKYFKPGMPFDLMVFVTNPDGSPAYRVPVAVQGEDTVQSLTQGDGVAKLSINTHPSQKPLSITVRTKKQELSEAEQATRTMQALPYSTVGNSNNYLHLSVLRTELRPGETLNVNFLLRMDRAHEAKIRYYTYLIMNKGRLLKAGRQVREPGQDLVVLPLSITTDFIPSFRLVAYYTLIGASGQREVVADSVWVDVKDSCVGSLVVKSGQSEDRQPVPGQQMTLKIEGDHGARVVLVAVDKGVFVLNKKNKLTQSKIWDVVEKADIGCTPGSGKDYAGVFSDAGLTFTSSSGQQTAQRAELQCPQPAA
# Chain of plasma purified human complement protein C3 (human) (P01024 672-1663, chain 2 of 2): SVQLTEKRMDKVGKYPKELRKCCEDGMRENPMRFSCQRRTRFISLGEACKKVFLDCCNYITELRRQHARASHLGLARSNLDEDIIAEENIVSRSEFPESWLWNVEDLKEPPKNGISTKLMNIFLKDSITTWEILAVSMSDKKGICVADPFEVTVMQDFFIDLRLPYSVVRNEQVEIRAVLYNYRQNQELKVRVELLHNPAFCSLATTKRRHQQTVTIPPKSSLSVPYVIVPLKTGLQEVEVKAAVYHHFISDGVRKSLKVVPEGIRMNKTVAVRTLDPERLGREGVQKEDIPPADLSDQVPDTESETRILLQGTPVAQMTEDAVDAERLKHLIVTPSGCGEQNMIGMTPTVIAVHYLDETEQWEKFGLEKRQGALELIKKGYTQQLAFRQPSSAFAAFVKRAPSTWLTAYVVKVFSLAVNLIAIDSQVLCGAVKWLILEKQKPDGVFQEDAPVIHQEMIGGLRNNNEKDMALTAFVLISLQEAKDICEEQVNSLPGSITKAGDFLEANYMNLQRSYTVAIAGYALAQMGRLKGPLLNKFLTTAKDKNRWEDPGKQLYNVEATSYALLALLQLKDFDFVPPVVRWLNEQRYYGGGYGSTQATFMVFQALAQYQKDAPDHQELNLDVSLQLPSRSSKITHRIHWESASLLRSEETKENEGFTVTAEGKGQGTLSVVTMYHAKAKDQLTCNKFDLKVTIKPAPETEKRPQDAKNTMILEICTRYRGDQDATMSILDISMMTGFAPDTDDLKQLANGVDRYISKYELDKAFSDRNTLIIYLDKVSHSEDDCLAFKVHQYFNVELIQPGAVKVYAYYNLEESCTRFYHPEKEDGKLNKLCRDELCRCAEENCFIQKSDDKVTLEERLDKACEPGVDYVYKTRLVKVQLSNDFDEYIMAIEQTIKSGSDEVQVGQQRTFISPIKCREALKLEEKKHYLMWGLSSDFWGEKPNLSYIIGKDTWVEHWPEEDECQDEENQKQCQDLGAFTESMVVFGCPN
row,EC50 of hC3 cleavage,Binder
1,187 nM,MTSP-1 H40R/I41H/Y60gN/F97D/F99L/C122S/G151N/Q175K/Q192S/D217S/K224L (enzyme) VVGGTDADEGEWPWQVSLHALGQGRHCGASLISPNWLVSAAHCYIDDRGFRNSDPTQWTAFLGLHDQSQRSAPGVQERRLKRIISHPFFNDDTLDYDIALLELEKPAEYSSMVRPISLPDASHVFPAGKAIWVTGWGHTQYGGTNALILQKGEIRVINQTTCENLLPQKITPRMMCVGFLSGGVDSCSGDSGGPLSSVEADGRIFQAGVVSWGSGCAQRNLPGVYTRLPLFRDWIKENTGV
2,19.8 nM,MTSP-1 H40R/I41H/Y60gH/F97D/F99L/C122S/G151N/Q175A/Q192H/D217I/K224R (enzyme) VVGGTDADEGEWPWQVSLHALGQGRHCGASLISPNWLVSAAHCYIDDRGFRHSDPTQWTAFLGLHDQSQRSAPGVQERRLKRIISHPFFNDDTLDYDIALLELEKPAEYSSMVRPISLPDASHVFPAGKAIWVTGWGHTQYGGTNALILQKGEIRVINQTTCENLLPQAITPRMMCVGFLSGGVDSCHGDSGGPLSSVEADGRIFQAGVVSWGIGCAQRNRPGVYTRLPLFRDWIKENTGV
3,54.9 nM,MTSP-1 H40R/I41H/Y60gL/F97D/F99L/C122S/G151N (enzyme) VVGGTDADEGEWPWQVSLHALGQGRHCGASLISPNWLVSAAHCYIDDRGFRLSDPTQWTAFLGLHDQSQRSAPGVQERRLKRIISHPFFNDDTLDYDIALLELEKPAEYSSMVRPISLPDASHVFPAGKAIWVTGWGHTQYGGTNALILQKGEIRVINQTTCENLLPQQITPRMMCVGFLSGGVDSCQGDSGGPLSSVEADGRIFQAGVVSWGDGCAQRNKPGVYTRLPLFRDWIKENTGV
4,9.92 nM,MTSP-1 H40R/I41H/Y60gF/F97D/F99L/C122S/Q175M/Q192G/D217W/K224R (enzyme) VVGGTDADEGEWPWQVSLHALGQGRHCGASLISPNWLVSAAHCYIDDRGFRFSDPTQWTAFLGLHDQSQRSAPGVQERRLKRIISHPFFNDDTLDYDIALLELEKPAEYSSMVRPISLPDASHVFPAGKAIWVTGWGHTQYGGTGALILQKGEIRVINQTTCENLLPQMITPRMMCVGFLSGGVDSCGGDSGGPLSSVEADGRIFQAGVVSWGWGCAQRNRPGVYTRLPLFRDWIKENTGV
5,3.72 nM,MTSP-1 H40R/I41H/Y60gH/F97D/F99L/C122S/Q175M/Q192G/D217I/K224L (enzyme) VVGGTDADEGEWPWQVSLHALGQGRHCGASLISPNWLVSAAHCYIDDRGFRHSDPTQWTAFLGLHDQSQRSAPGVQERRLKRIISHPFFNDDTLDYDIALLELEKPAEYSSMVRPISLPDASHVFPAGKAIWVTGWGHTQYGGTGALILQKGEIRVINQTTCENLLPQMITPRMMCVGFLSGGVDSCGGDSGGPLSSVEADGRIFQAGVVSWGIGCAQRNLPGVYTRLPLFRDWIKENTGV
6,25.9 nM,MTSP-1 H40R/I41H/Y60gF/F97D/F99L/C122S/Q192G/D217R/K224A (enzyme) VVGGTDADEGEWPWQVSLHALGQGRHCGASLISPNWLVSAAHCYIDDRGFRFSDPTQWTAFLGLHDQSQRSAPGVQERRLKRIISHPFFNDDTLDYDIALLELEKPAEYSSMVRPISLPDASHVFPAGKAIWVTGWGHTQYGGTGALILQKGEIRVINQTTCENLLPQQITPRMMCVGFLSGGVDSCGGDSGGPLSSVEADGRIFQAGVVSWGRGCAQRNAPGVYTRLPLFRDWIKENTGV
7,38 nM,MTSP-1 H40R/I41H/Y60gF/F97D/F99L/C122S/Q192G/D217M/K224R (enzyme) VVGGTDADEGEWPWQVSLHALGQGRHCGASLISPNWLVSAAHCYIDDRGFRFSDPTQWTAFLGLHDQSQRSAPGVQERRLKRIISHPFFNDDTLDYDIALLELEKPAEYSSMVRPISLPDASHVFPAGKAIWVTGWGHTQYGGTGALILQKGEIRVINQTTCENLLPQQITPRMMCVGFLSGGVDSCGGDSGGPLSSVEADGRIFQAGVVSWGMGCAQRNRPGVYTRLPLFRDWIKENTGV

# The remaining lines, values behind:
row,Binder,EC50 of hC3 cleavage
1,MTSP-1 H40R/I41H/F97D/F99L/Q192G (enzyme) VVGGTDADEGEWPWQVSLHALGQGRHCGASLISPNWLVSAAHCYIDDRGFRYSDPTQWTAFLGLHDQSQRSAPGVQERRLKRIISHPFFNDDTLDYDIALLELEKPAEYSSMVRPICLPDASHVFPAGKAIWVTGWGHTQYGGTGALILQKGEIRVINQTTCENLLPQQITPRMMCVGFLSGGVDSCGGDSGGPLSSVEADGRIFQAGVVSWGDGCAQRNKPGVYTRLPLFRDWIKENTGV,24.1 nM
2,MTSP-1 H40R/I41H/F97D/F99L/C122S/Q175K/Q192G/D217I/K224H (enzyme) VVGGTDADEGEWPWQVSLHALGQGRHCGASLISPNWLVSAAHCYIDDRGFRYSDPTQWTAFLGLHDQSQRSAPGVQERRLKRIISHPFFNDDTLDYDIALLELEKPAEYSSMVRPISLPDASHVFPAGKAIWVTGWGHTQYGGTGALILQKGEIRVINQTTCENLLPQKITPRMMCVGFLSGGVDSCGGDSGGPLSSVEADGRIFQAGVVSWGIGCAQRNHPGVYTRLPLFRDWIKENTGV,19.4 nM
3,MTSP-1 H40R/I41H/F97D/F99L/C122S/Q175M/Q192G/D217S (enzyme) VVGGTDADEGEWPWQVSLHALGQGRHCGASLISPNWLVSAAHCYIDDRGFRYSDPTQWTAFLGLHDQSQRSAPGVQERRLKRIISHPFFNDDTLDYDIALLELEKPAEYSSMVRPISLPDASHVFPAGKAIWVTGWGHTQYGGTGALILQKGEIRVINQTTCENLLPQMITPRMMCVGFLSGGVDSCGGDSGGPLSSVEADGRIFQAGVVSWGSGCAQRNKPGVYTRLPLFRDWIKENTGV,24.4 nM
4,MTSP-1 H40R/I41H/F97D/F99L/C122S/Q175L/Q192G/D217K/K224A (enzyme) VVGGTDADEGEWPWQVSLHALGQGRHCGASLISPNWLVSAAHCYIDDRGFRYSDPTQWTAFLGLHDQSQRSAPGVQERRLKRIISHPFFNDDTLDYDIALLELEKPAEYSSMVRPISLPDASHVFPAGKAIWVTGWGHTQYGGTGALILQKGEIRVINQTTCENLLPQLITPRMMCVGFLSGGVDSCGGDSGGPLSSVEADGRIFQAGVVSWGKGCAQRNAPGVYTRLPLFRDWIKENTGV,14.1 nM
5,MTSP-1 H40R/I41H/F97D/F99L/C122S/Q175M/Q192G/D217V/K224Y (enzyme) VVGGTDADEGEWPWQVSLHALGQGRHCGASLISPNWLVSAAHCYIDDRGFRYSDPTQWTAFLGLHDQSQRSAPGVQERRLKRIISHPFFNDDTLDYDIALLELEKPAEYSSMVRPISLPDASHVFPAGKAIWVTGWGHTQYGGTGALILQKGEIRVINQTTCENLLPQMITPRMMCVGFLSGGVDSCGGDSGGPLSSVEADGRIFQAGVVSWGVGCAQRNYPGVYTRLPLFRDWIKENTGV,2.76 nM
6,MTSP-1 H40K/I41L/Y60gF/F97D/F99L/C122S/G151N/Q175R (enzyme) VVGGTDADEGEWPWQVSLHALGQGKLCGASLISPNWLVSAAHCYIDDRGFRFSDPTQWTAFLGLHDQSQRSAPGVQERRLKRIISHPFFNDDTLDYDIALLELEKPAEYSSMVRPISLPDASHVFPAGKAIWVTGWGHTQYGGTNALILQKGEIRVINQTTCENLLPQRITPRMMCVGFLSGGVDSCQGDSGGPLSSVEADGRIFQAGVVSWGDGCAQRNKPGVYTRLPLFRDWIKENTGV,237 nM
7,MTSP-1 H40K/I41M/Y60gG/F97D/F99L/C122S/G151N/Q175R/Q192R/D217V/K224S (enzyme) VVGGTDADEGEWPWQVSLHALGQGKMCGASLISPNWLVSAAHCYIDDRGFRGSDPTQWTAFLGLHDQSQRSAPGVQERRLKRIISHPFFNDDTLDYDIALLELEKPAEYSSMVRPISLPDASHVFPAGKAIWVTGWGHTQYGGTNALILQKGEIRVINQTTCENLLPQRITPRMMCVGFLSGGVDSCRGDSGGPLSSVEADGRIFQAGVVSWGVGCAQRNSPGVYTRLPLFRDWIKENTGV,509 nM
8,MTSP-1 F97T/ins97aE/T98G/F99L/C122S/Q175L/Q192E (enzyme) VVGGTDADEGEWPWQVSLHALGQGHICGASLISPNWLVSAAHCYIDDRGFRYSDPTQWTAFLGLHDQSQRSAPGVQERRLKRIISHPFFNDTEGLDYDIALLELEKPAEYSSMVRPISLPDASHVFPAGKAIWVTGWGHTQYGGTGALILQKGEIRVINQTTCENLLPQLITPRMMCVGFLSGGVDSCEGDSGGPLSSVEADGRIFQAGVVSWGDGCAQRNKPGVYTRLPLFRDWIKENTGV,259 nM
